Results: the nanobody polyreactivity screen of Harvey et al. (2022)

Test: yeast display, Sf9 membrane polyspecificity reagent, FACS + sequencing; frameworks hold sequencing errors
Method in brief: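 After 36–48 hours of galactose induction, yeast (Saccharomyces cerevisiae BJ5465) displaying a synthetic nanobody library were stained at 4 °C for 1 hour with 10% biotinylated, detergent-solubilized Sf9 membrane reagent. Streptavidin microbeads enriched the stained cells before FACS sorting into low and high (top ~1%) gates on anti-HA and streptavidin fluorescence. Each clone's polyreactivity label reflects its gate of origin.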

Row | Sequence | polyreactivity (PSR sort gate)
1 | QVQLVESGGGLVQAGGSLRFSCAASGHIFFYYTMGWYRQAPGKERELVAGITQSGGNTYYADSVKGRFTISRDNAKNTVYLQMNSLKPEDTAVYYCAARIRGTWKYGYWGQGTQVTVSS | low polyreactivity
2 | QLQLEESGGGFVQAGGSLRISCAASGAIFLSYAMGWYRQAAAKEMEFVAGISYSGGTTYYADSVKGRFTISRDNAKNTVYLQMNSLKQEVTAVYYCAKRTAVWTSGGYRKRDYWGQATQVTVSS | high polyreactivity
3 | QVQLVESGGGLVQAGGSLRLSCAASGSIFGYYAMGWYRQAPGKERELVATITTRGARTYYADSVKGRFTISRDNAKNTVYLQMNSLKPEDTAVYYCAAYGYYNFGYYYWGQGTQVTVSS | high polyreactivity
4 | QVQLVESGGGLVQAGGSLRLSCAASGSIFGRNTMGWYRPAPGKERELVAAISSGGRTYYADSVKGRFTISRDNAKITVYLQINSLKPEDTAVYYCAAALRRRRADFDYWGQGTQVTVSS | high polyreactivity
5 | QVQLVESGGGLVQAGGSLRLSCAASGSTQFGYAIGWYRQAPGKEREFVAAITSGGNTYYADSVKGRFTISLDNAKYTVYLQMNSLKPEDTAVFYCNKRYRSFAARLRGYDYWGQGTQVTVSS | high polyreactivity
6 | QVQLVESGGGLVQAGGSLRLSCAASGGTFGSNAMGWYRQAPGKERELLAAISFSDGITYYADSVKGRFTISRDNAKNTVYLQMNSLKPEDSAVYYCAAELGTSRGGDTMEYWGQGTKVTVSS | high polyreactivity
7 | QVQLVESGVGLVQAGGSLRLSCAASGIIFASNGMGWYRQAPGKERELVAAISSGGSTNYADSVKGRFTISRDNAKNTVYLQMNSLKPEDTAVYYCAADRWNREYDYWGQGTQVTVSS | low polyreactivity
8 | QVQLVESGGGLVKAGGSLRLSCAASGFTFPQYAMGWYRQAPGKERELVAAISKRSVGTRYADSVKGRFTISRDNAKNTLYLQMNSLKPEDTAVYYCNKYGQVPGYFSLDYWGQGTQVTVSS | high polyreactivity
9 | QVQLVESGGGLVQAGGSLRLSCAASGFTYGSNAMGWYRQAPGKERELVATISRRGGRTYYADSVKGRFTISRDNAKNTVYLQMNSLKPEDTAVYYCAADRSRPGYDYWGQGTQVTVSS | high polyreactivity
10 | QVQLVESGGGLVQAGGSLRLSCAASGRIFWDYAMGWYRQAPGKERELVAVITFSGDSTYYADSVKGRFTISRDNAKHTVYIQMNSLKPEDTAVYYCAAARAIRQFWYVATFEYWGQGTLVTVSS | low polyreactivity
11 | QVQLVESGGGLVQAGGSLRLSCAASGRTIWWYAMGWYRQAPGKERELVADITWIGGSTYYADSVKGRFTISRDNAKNTVYLQMNSLKPEDTAVYYCATDKDDVSDLGKDYAYFEYDYWGQGTQVTVSS | low polyreactivity
12 | QVQLVESGGGLVQAGGSLRLSCAASGNTFRYYAMGWYRQAPGKERELVAVITTRGGSTNYADSVKGRFTISRDNAKNTVYLQMNSLKPEDTAVYYCAARPGIRSYPPGYGYWGQGTQVTVSS | low polyreactivity
13 | QVQLVESGGGLVQAGGSLRLSCAASGSILLYYTMGWYRQAPGKERELVASITSGGRTYYADSVKGRFTISRDNAKNTVYLQMNSLKPEDTAVYFCAADVWKLYDYWGQGTQVTVSS | low polyreactivity
14 | QVQLVESGGGLVQAGGSLRLSCAASGSIYYRNGMGWYRQAPGKEREFVATITNNGGNTYYADSVKGRFTISRDNAKNTVYLQLNSLKPDDTAVYYCAAGPTWSWGYYYWGQGTQVTVSS | high polyreactivity
15 | QVQLVESGGGLVQAGGSLRLSCAASGSIFGSYTMGWYRQAPGKERELVAAISLGGGSTYYADSVKGRFSISRDNAKNTVYLQMNSLKPEDTAVYYCAAGFTYPYDYWGQGTQVTVSS | low polyreactivity
16 | QVQLVESGGGLVQAGGSLRLSFDASGLIFYYYTMGWYRPAPGKERELVAAITWTDVDTYYADSVKGRFTISRDNAKNTVYLQMNSLKPEDTAVYYCAAEGGRTSYGGSGELDYWGQGTQVTVSS | high polyreactivity
17 | QVQLVESGGGLVQAGGSLRLSCAASGFTFHRNAMGWYRQAPGKERELVAAISTRGGSTAYADSVKGRFTISRDNAKNTVYLQMNSLKPEDTAVYYCAARVRVTGTYYTKYDYWGQGTQVTVSS | high polyreactivity
18 | QVQLVESGGGLVQAGGSLRLSCAASGSIFNINAMGWYRQAPGKESELVATITSGGTTSYADSVKGRFTISRDNAKNTVYLQMNSLKPEDTAVYYCNAEIYPIVKAGLQHPRRYDYWGQGTQVTVSS | low polyreactivity
19 | QVQLVESGGGLVQAGGSLRLSCAASGFTFSFYAMGWYRQAPGKERELVAAITWSGGNTYYADSVKGRFTISRDNAKNTVDLQMNSLKPEDTAVYYCAARGPASVRYYYWGQGTQVTVSS | high polyreactivity
20 | QVQLVESGGGLVQAGGSLRLSCAAAGSIFRINDMGWYRQATGKERELVAAITFSGGSTYADSVKGRFTISRDNAKNTVYLQMNSLKPEDTAVYYCNADGAYWTDYYLYDYWGHGTQVTVSS | low polyreactivity
21 | QVQLVESGRGLVQAGGSLRLICAASGNIFWYNAMGWYRQAPGKERELVAAINWSGGSTYYADSVKGRFRISRDNAKNTVYLEMNSLKPEDTAVYYCYAEWYDGDALQWVEYWGQGTQVTVSS | high polyreactivity
22 | QVQLVESGGGLVQAGGSLRLSCAASGYISFGYAMGWYRQAPGKEREFVAAISVGGGTTYYADSVKGRFTISRDNAKNTVYLQMNSLKPEDTAVYYCAGRSYSYAPRRGYWGQGTQVTVSS | high polyreactivity
